Results as given in patent US20090264512, “NUCLEIC ACID LIGANDS CAPABLE OF BINDING TO […] OR INTERNALIN A” (published 2009).

Legend:
Internalin A (InlA) [1] = biological target: T1, Internalin A (InlA) (Listeria monocytogenes, UniProt P0DJM0 P0DJM0:36-770); assay: ELONA; strong ELISA signal compared to library; settings: tags: His-tag
T1 sequence: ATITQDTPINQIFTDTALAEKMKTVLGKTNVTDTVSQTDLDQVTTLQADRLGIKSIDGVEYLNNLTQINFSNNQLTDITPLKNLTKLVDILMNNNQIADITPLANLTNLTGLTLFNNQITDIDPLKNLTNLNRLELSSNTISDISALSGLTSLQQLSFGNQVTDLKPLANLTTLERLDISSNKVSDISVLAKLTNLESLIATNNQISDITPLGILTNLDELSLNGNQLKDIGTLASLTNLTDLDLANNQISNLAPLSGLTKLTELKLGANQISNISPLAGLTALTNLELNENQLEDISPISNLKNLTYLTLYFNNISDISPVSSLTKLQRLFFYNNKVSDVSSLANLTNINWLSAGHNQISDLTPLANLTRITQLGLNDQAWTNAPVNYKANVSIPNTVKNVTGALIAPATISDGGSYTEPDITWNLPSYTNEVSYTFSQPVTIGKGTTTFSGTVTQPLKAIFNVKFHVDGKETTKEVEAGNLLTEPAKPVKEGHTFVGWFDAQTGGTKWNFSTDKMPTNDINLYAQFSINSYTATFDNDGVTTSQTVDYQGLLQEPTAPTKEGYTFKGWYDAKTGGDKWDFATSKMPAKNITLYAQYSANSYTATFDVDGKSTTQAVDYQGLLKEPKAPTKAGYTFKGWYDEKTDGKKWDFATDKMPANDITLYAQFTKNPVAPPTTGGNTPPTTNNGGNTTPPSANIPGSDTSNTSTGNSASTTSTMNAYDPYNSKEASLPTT
Procedure: A nickel-coated microplate (HisSorb, Qiagen) was used to bind 500 ng his-tagged inlA, peptide D or 0610 (Listeria monocytogenes-specific non-internalin cell wall protein) to the plate as per manufacturer's directions. Biotinylated aptamer or aptamer library (5 ng/μL) was heated to 95° C. for 3 minutes and quickly cooled to 4° C. for 5 minutes before application to each well. The biotinylated aptamer or aptamer library was incubated with the bound proteins in the HisSorb plate overnight at 4° C. with gentle shaking. Wells were then washed four times with 200 μL PBS-T. Streptavidin-horseradish peroxidase was added to the wells for 30 minutes at room temperature with gentle shaking. The wells were washed as described previously before development with TMB (Pierce). The reactions were stopped with 1M H₂SO₄ and absorbance was measured at 450 nm using a ThermoMax microplate reader (Molecular Devices). In FIG. 6, the initial aptamer library was used as a negative control, and the data represents the average±S.D. of n=3. […] The amount of selected aptamer bound to the particular proteins was determined by absorbance measured. The data represents the average±S.D. of n=3.

Internalin A (InlA) [2] = biological target: T1, Internalin A (InlA); assay: competition; competitive ELISA, sigmoidal fit; settings: tags: His-tag
Procedure: A specified amount of internalin A (500 ng) was coated on the plate. 5 ng/uL biotinylated aptamer A8 (SEQ ID NO:21) was incubated with increasing amounts of non-biotinylated aptamer A8 and then applied to the coated plates. Using GraphPad Prism 4 software, the Sigmoidal model (equation: a+(b−a)/(1+10̂(x−c))) was used to determine EC50.

B1: InlA aptamer SEQ 25 (ssDNA)
DNA: ATCGGGTTATAGTTAGCGGGTAGGGGAGGGAGGGTAGATAGCTCGAT
binding result (Internalin A (InlA) [1]): binds

B2: A8 (ssDNA)
DNA: ATCCATGGGGCGGAGATGAGGGGGAGGAGGGCGGGTACCCGGTTGAT
EC50 (Internalin A (InlA) [2]): 544 nM

B3: InlA aptamer SEQ 23 (ssDNA)
DNA: ATCAGCAACAAGTGTGGGTAAGGGGAGGGCGGGAATGGGATGATGAT
binding result (Internalin A (InlA) [1]): binds

B4: InlA aptamer SEQ 22 (ssDNA)
DNA: ATCTAGGACTGGGTGGGAAGGGATGGGAAAAATGTCCGCGCCTCGAT
binding result (Internalin A (InlA) [1]): binds

B5: InlA aptamer SEQ 24 (ssDNA)
DNA: ATCGGATGTGGGCAGGGGGGGGTGGGAAACGATTACAGACACAAGAT
binding result (Internalin A (InlA) [1]): binds
